Consider 6 molecules from patent US20110305711A1 (Eli Lilly, published 2011).

The target in test [1] is T1, human α-CGRP (Bachem H1470) (human, UniProt P06881 83-119).
T1 peptide (looked up): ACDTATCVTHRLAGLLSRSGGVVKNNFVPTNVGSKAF
As to the kind of experiment: cell-based or functional assay.

Test [2] deals with Human CGRP (human) (UniProt P06881). As to the kind of experiment: SPR, Biacore T100, 37 C. In general terms: SPR reads the build-up and loss of mass on a sensor chip optically.
The target is the same in test [3]. Put plainly: SPR, Biacore T100, 37 C, antibody captured on protein A, CGRP as analyte; n=1.
Test [4] shares this target. Put plainly: SPR, Biacore T100, 37 C, antibody captured on protein A, CGRP as analyte; mean ± SD, n=6.
Test [5] has the same target. Put plainly: SPR, Biacore T100, 37 C, antibody captured on protein A, CGRP as analyte; mean ± SD, n=3.
Test [6] has the same target. Put plainly: SPR, Biacore T100, 37 C, antibody captured on protein A, CGRP as analyte; mean ± SD, n=4.
Test [7] has the same target. Put plainly: SPR, Biacore T100, 37 C, antibody captured on protein A, CGRP as analyte; mean ± SD, n=2.

What is called Kd is the concentration at which binding is half-saturated. A lower Kd goes with higher affinity.

B1: Antibody G1 (antibody, V domains shown)
VH: EVQLVESGGGLVQPGGSLRLSCAASGFTFSNYWISWVRQAPGKGLEWVAEIRSESDASATHYAEAVKGRFTISRDNAKNSLYLQMNSLRAEDTAVYYCLAYFDYGLAIQNYWGQGTLVTVSS
VL: EIVLTQSPATLSLSPGERATLSCKASKRVTTYVSWYQQKPGQAPRLLIYGASNRYLGIPARFSGSGSGTDFTLTISSLEPEDFAVYYCSQSYNYPYTFGQGTKLEIK
B1: the “inhibition of CGRP induced cAMP formation in SK-N-MC cells (IC50)” value in test [1] came to 5.36 nM.

B2: Antibody I (antibody, human IgG4 S228P, kappa, F234A L235A, V domains shown)
VH: QVQLVQSGAEVKKPGASVKVSCKASGYTFGNYWMQWVRQAPGQGLEWMGAIYEGTGDTRYIQKFAGRVTMTRDTSTSTVYMELSSLRSEDTAVYYCARLSDYVSGFSYWGQGTLVTVSS
VL: DIQMTQSPSSLSASVGDRVTITCRASQDIDNYLNWYQQKPGKAPKLLIYYTSEYHSGVPSRFSGSGSGTDFTFTISSLQPEDIATYYCQQGDALPPTFGQGTKLEIKR
For the molecule B2, the Kd in the test with Human CGRP (human) [2] was below 200000 nM; in the test with Human CGRP (human) [3], 0.19 nM.

B3: Antibody III (antibody, human IgG4 S228P, kappa, F234A L235A, V domains shown)
VH: QVQLVQSGAEVKKPGSSVKVSCKASGYTFGNYWMQWVRQAPGQGLEWMGAIYEGTGKTVYIQKFADRVTITADKSTSTAYMELSSLRSEDTAVYYCARLSDYVSGFGYWGQGTTVTVSS
VL: DIQMTQSPSSLSASVGDRVTITCRASKDISKYLNWYQQKPGKAPKLLIYYTSGYHSGVPSRFSGSGSGTDFTLTISSLQPEDFATYYCQQGDALPPTFGGGTKVEIKR
As for B3, the equilibrium dissociation constant (Kd) in the test with Human CGRP (human) [2] was below 200000 nM; in the test with Human CGRP (human) [4] it was 0.031 nM. For the same molecule, the “inhibition of CGRP induced cAMP formation in SK-N-MC cells (IC50)” value in test [1] was 0.41 nM.

B4: Antibody II (antibody, human IgG4 S228P, kappa, F234A L235A, V domains shown)
VH: QVQLVQSGAEVKKPGASVKVSCKASGYTFGNYWMQWVRQAPGQGLEWMGAIYEGTGKTVYIQKFAGRVTMTRDTSTSTVYMELSSLRSEDTAVYYCARLSDYVSGFSYWGQGTLVTVSS
VL: DIQMTQSPSSLSASVGDRVTITCRASQDIDNYLNWYQQKPGKAPKLLIYYTSEYHSGVPSRFSGSGSGTDFTFTISSLQPEDIATYYCQQGDALPPTFGQGTKLEIKR
For the molecule B4, the Kd was below 200000 nM with Human CGRP (human) [2] and 0.026 nM with Human CGRP (human) [5].

B5: Antibody IV (antibody, human IgG4 S228P, kappa, F234A L235A, V domains shown)
VH: QVQLVQSGAEVKKPGASVKVSCKASGYTFGNYWMQWVRQAPGQGLEWMGAIYEGTGKTVYIQKFAGRVTMTRDTSTSTVYMELSSLRSEDTAVYYCARLSDYVSGFGYWGQGTLVTVSS
VL: DIQMTQSPSSLSASVGDRVTITCRASRPIDKYLNWYQQKPGKAPKLLIYYTSEYHSGVPSRFSGSGSGTDFTFTISSLQPEDIATYYCQQGDALPPTFGQGTKLEIKR
Take B5: the Kd in the test with Human CGRP (human) [2] is below 200000 nM; in the test with Human CGRP (human) [6], 0.024 nM.

B6: Antibody V (antibody, human IgG4 S228P, kappa, F234A L235A, V domains shown)
VH: QVQLVQSGAEVKKPGSSVKVSCKASGYTFGNYWMQWVRQAPGQGLEWMGAIYEGTGKTVYIQKFAGRVTITADKSTSTAYMELSSLRSEDTAVYYCARLSDYVSGFGYWGQGTTVTVSS
VL: DIQMTQSPSSLSASVGDRVTITCRASQDIDKYLNWYQQKPGKAPKLLIYYTSGYHSGVPSRFSGSGSGTDFTLTISSLQPEDFATYYCQQGDALPPTFGGGTKVEIKR
In the case of B6, the dissociation constant (Kd) was below 200000 nM with Human CGRP (human) [2] and 0.024 nM in the test with Human CGRP (human) [7].
